In patent US20100260668A1 (published 2010):

Target: T1, VEGF (UniProt P15692-4 27-191)
T1 construct: Bought reagent; also called vascular endothelial growth factor
Experiment: BIACORE SPR

T1 sequence (P15692 other isoform, or with tags, fused parts or gaps limits assumed): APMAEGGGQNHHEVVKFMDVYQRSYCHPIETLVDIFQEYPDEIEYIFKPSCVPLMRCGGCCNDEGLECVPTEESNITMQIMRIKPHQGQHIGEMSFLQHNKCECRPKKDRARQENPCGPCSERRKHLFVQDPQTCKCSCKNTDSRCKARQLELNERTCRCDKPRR

Binder | Kd [nM] | koff [s⁻¹] | kon [M⁻¹ s⁻¹]
DVD476 (bispecific antibody, human IgG1, kappa, DVD-Ig; N-term; AB014 (VEGF), C-term; AB015 (DLL4); HC linker long, LC linker short; also called DVD476H; DVD476L) heavy: not shown light: DIQMTQSPSSLSASVGDRVTITCSASQDISNYLNWYQQKPGKAPKVLIYFTSSLHSGVPSRFSGSGSGTDFTLTISSLQPEDFATYYCQQYSTVPWTFGQGTKVEIKRTVAAPDIQMTQSPSSLSASVGDRVTITCRASQDVSTAVAWYQQKPGKAPKLLIYSASFLYSGVPSRFSGSGSGTDFTLTISSLQPEDFATTYYCQQSYTGTVTFGQGTKVEIKRTVAAPSVFIFPPSDEQLKSGTASVVCLLNNFYPREAKVQWKVDNALQSGNSQESVTEQDSKDSTYSLSSTLTLSKADYEKHKVYACEVTHQGLSSPVTKSFNRGEC | 0.0281 | 4.74e-05 | 1.69e+06
DVD512 (bispecific antibody, human IgG1, lambda, L234A L235A, DVD-Ig; N-term; AB014 (VEGF), C-term; AB073 (DLL4); HC linker short, LC linker short; also called DVD512H; DVD512L) heavy: not shown light: DIQMTQSPSSLSASVGDRVTITCSASQDISNYLNWYQQKPGKAPKVLIYFTSSLHSGVPSRFSGSGSGTDFTLTISSLQPEDFATYYCQQYSTVPWTFGQGTKVEIKRTVAAPQAVVTQESALTTSPGETVTLTCRSSTGAVTTSNYANWVQEKPDHLFTGLIGGTNNRAPGVPARFSGSLIGDKAALTITGAQTEDEAIYFCALWYSNHWVFGGGTKLTVLGQPKAAPSVTLFPPSSEELQANKATLVCLISDFYPGAVTVAWKADSSPVKAGVETTTPSKQSNNKYAASSYLSLTPEQWKSHRSYSCQVTHEGSTVEKTVAPTECS | 0.153 | 0.000143 | 939000
DVD524 (bispecific antibody, human IgG1, lambda, DVD-Ig; N-term; AB014 (VEGF), C-term; AB073 (DLL4); HC linker long, LC linker short; also called DVD524H; DVD524L) heavy: not shown light: DIQMTQSPSSLSASVGDRVTITCSASQDISNYLNWYQQKPGKAPKVLIYFTSSLHSGVPSRFSGSGSGTDFTLTISSLQPEDFATYYCQQYSTVPWTFGQGTKVEIKRTVAAPQAVVTQESALTTSPGETVTLTCRSSTGAVTTSNYANWVQEKPDHLFTGLIGGTNNRAPGVPARFSGSLIGDKAALTITGAQTEDEAIYFCALWYSNHWVFGGGTKLTVLGQPKAAPSVTLFPPSSEELQANKATLVCLISDFYPGAVTVAWKADSSPVKAGVETTTPSKQSNNKYAASSYLSLTPEQWKSHRSYSCQVTHEGSTVEKTVAPTECS | 0.113 | 0.000188 | 1.67e+06
DVD442 (bispecific antibody, human IgG1, kappa, DVD-Ig; N-term; AB014 (VEGF), C-term; AB069 (DLL4); HC linker short, LC linker short; also called DVD442H; DVD442L) heavy: not shown light: DIQMTQSPSSLSASVGDRVTITCSASQDISNYLNWYQQKPGKAPKVLIYFTSSLHSGVPSRFSGSGSGTDFTLTISSLQPEDFATYYCQQYSTVPWTFGQGTKVEIKRTVAAPDIVMTQSPDSLAVSLGERATISCRASESVDNYGISFMKWFQQKPGQPPKLLIYAASNQGSGVPDRFSGSGSGTDFTLTISSLQAEDVAVYYCQQSKEVPWTFGGGTKVEIKRTVAAPSVFIFPPSDEQLKSGTASVVCLLNNFYPREAKVQWKVDNALQSGNSQESVTEQDSKDSTYSLSSTLTLSKADYEKHKVYACEVTHQGLSSPVTKSFNRGEC | 0.088 | 0.00017 | 1.93e+06
DVD454 (bispecific antibody, human IgG1, kappa, DVD-Ig; N-term; AB014 (VEGF), C-term; AB069 (DLL4); HC linker long, LC linker short; also called DVD454H; DVD454L) heavy: not shown light: DIQMTQSPSSLSASVGDRVTITCSASQDISNYLNWYQQKPGKAPKVLIYFTSSLHSGVPSRFSGSGSGTDFTLTISSLQPEDFATYYCQQYSTVPWTFGQGTKVEIKRTVAAPDIVMTQSPDSLAVSLGERATISCRASESVDNYGISFMKWFQQKPGQPPKLLIYAASNQGSGVPDRFSGSGSGTDFTLTISSLQAEDVAVYYCQQSKEVPWTFGGGTKVEIKRTVAAPSVFIFPPSDEQLKSGTASVVCLLNNFYPREAKVQWKVDNALQSGNSQESVTEQDSKDSTYSLSSTLTLSKADYEKHKVYACEVTHQGLSSPVTKSFNRGEC | 0.079 | 0.000126 | 1.59e+06
DVD494 (bispecific antibody, human IgG1, kappa, DVD-Ig; N-term; AB014 (VEGF), C-term; AB072 (DLL4); HC linker long, LC linker long; also called DVD494H; DVD494L) heavy: not shown light: DIQMTQSPSSLSASVGDRVTITCSASQDISNYLNWYQQKPGKAPKVLIYFTSSLHSGVPSRFSGSGSGTDFTLTISSLQPEDFATYYCQQYSTVPWTFGQGTKVEIKRTVAAPSVFIFPPDIQMTQSSSYLSVSLGGRVTITCKASDHINNWLAWYQQKPGNAPRLLISGATSLETGVPSRFSGSGSGKDYTLSITSLQTEDVATYYCQQYWSIPLTFGAGTKLELKRTVAAPSVFIFPPSDEQLKSGTASVVCLLNNFYPREAKVQWKVDNALQSGNSQESVTEQDSKDSTYSLSSTLTLSKADYEKHKVYACEVTHQGLSSPVTKSFNRGEC | 0.566 | 0.0176 | 3.11e+07
DVD448 (bispecific antibody, human IgG1, kappa, DVD-Ig; N-term; AB014 (VEGF), C-term; AB069 (DLL4); HC linker long, LC linker long; also called DVD448H; DVD448L) heavy: not shown light: DIQMTQSPSSLSASVGDRVTITCSASQDISNYLNWYQQKPGKAPKVLIYFTSSLHSGVPSRFSGSGSGTDFTLTISSLQPEDFATYYCQQYSTVPWTFGQGTKVEIKRTVAAPSVFIFPPDIVMTQSPDSLAVSLGERATISCRASESVDNYGISFMKWFQQKPGQPPKLLIYAASNQGSGVPDRFSGSGSGTDFTLTISSLQAEDVAVYYCQQSKEVPWTFGGGTKVEIKRTVAAPSVFIFPPSDEQLKSGTASVVCLLNNFYPREAKVQWKVDNALQSGNSQESVTEQDSKDSTYSLSSTLTLSKADYEKHKVYACEVTHQGLSSPVTKSFNRGEC | 0.271 | 0.000136 | 504000
DVD460 (bispecific antibody, human IgG1, kappa, DVD-Ig; N-term; AB014 (VEGF), C-term; AB069 (DLL4); HC linker short, LC linker long; also called DVD460H; DVD460L) heavy: not shown light: DIQMTQSPSSLSASVGDRVTITCSASQDISNYLNWYQQKPGKAPKVLIYFTSSLHSGVPSRFSGSGSGTDFTLTISSLQPEDFATYYCQQYSTVPWTFGQGTKVEIKRTVAAPSVFIFPPDIVMTQSPDSLAVSLGERATISCRASESVDNYGISFMKWFQQKPGQPPKLLIYAASNQGSGVPDRFSGSGSGTDFTLTISSLQAEDVAVYYCQQSKEVPWTFGGGTKVEIKRTVAAPSVFIFPPSDEQLKSGTASVVCLLNNFYPREAKVQWKVDNALQSGNSQESVTEQDSKDSTYSLSSTLTLSKADYEKHKVYACEVTHQGLSSPVTKSFNRGEC | 0.174 | 0.000228 | 1.32e+06
DVD488 (bispecific antibody, human IgG1, kappa, DVD-Ig; N-term; AB014 (VEGF), C-term; AB072 (DLL4); HC linker short, LC linker short; also called DVD488H; DBD488L) heavy: not shown light: DIQMTQSPSSLSASVGDRVTITCSASQDISNYLNWYQQKPGKAPKVLIYFTSSLHSGVPSRFSGSGSGTDFTLTISSLQPEDFATYYCQQYSTVPWTFGQGTKVEIKRTVAAPDIQMTQSSSYLSVSLGGRVTITCKASDHINNWLAWYQQKPGNAPRLLISGATSLETGVPSRFSGSGSGKDYTLSITSLQTEDVATYYCQQYWSIPLTFGAGTKLELKRTVAAPSVFIFPPSDEQLKSGTASVVCLLNNFYPREAKVQWKVDNALQSGNSQESVTEQDSKDSTYSLSSTLTLSKADYEKHKVYACEVTHQGLSSPVTKSFNRGEC | 0.536 | 0.000374 | 699000
DVD500 (bispecific antibody, human IgG1, kappa, DVD-Ig; N-term; AB014 (VEGF), C-term; AB072 (DLL4); HC linker long, LC linker short; also called DVD500H; DVD500L) heavy: not shown light: DIQMTQSPSSLSASVGDRVTITCSASQDISNYLNWYQQKPGKAPKVLIYFTSSLHSGVPSRFSGSGSGTDFTLTISSLQPEDFATYYCQQYSTVPWTFGQGTKVEIKRTVAAPDIQMTQSSSYLSVSLGGRVTITCKASDHINNWLAWYQQKPGNAPRLLISGATSLETGVPSRFSGSGSGKDYTLSITSLQTEDVATYYCQQYWSIPLTFGAGTKLELKRTVAAPSVFIFPPSDEQLKSGTASVVCLLNNFYPREAKVQWKVDNALQSGNSQESVTEQDSKDSTYSLSSTLTLSKADYEKHKVYACEVTHQGLSSPVTKSFNRGEC | 0.504 | 0.000248 | 492000
DVD470 (bispecific antibody, human IgG1, kappa, DVD-Ig; N-term; AB014 (VEGF), C-term; AB015 (DLL4); HC linker long, LC linker long; also called DVD470H; DVD470L) heavy: not shown light: DIQMTQSPSSLSASVGDRVTITCSASQDISNYLNWYQQKPGKAPKVLIYFTSSLHSGVPSRFSGSGSGTDFTLTISSLQPEDFATYYCQQYSTVPWTFGQGTKVEIKRTVAAPSVFIFPPDIQMTQSPSSLSASVGDRVTITCRASQDVSTAVAWYQQKPGKAPKLLIYSASFLYSGVPSRFSGSGSGTDFTLTISSLQPEDFATTYYCQQSYTGTVTFGQGTKVEIKRTVAAPSVFIFPPSDEQLKSGTASVVCLLNNFYPREAKVQWKVDNALQSGNSQESVTEQDSKDSTYSLSSTLTLSKADYEKHKVYACEVTHQGLSSPVTKSFNRGEC | 0.201 | 0.00024 | 1.2e+06
DVD482 (bispecific antibody, human IgG1, kappa, DVD-Ig; N-term; AB014 (VEGF), C-term; AB015 (DLL4); HC linker short, LC linker long; also called DVD482H; DVD482L) heavy: not shown light: DIQMTQSPSSLSASVGDRVTITCSASQDISNYLNWYQQKPGKAPKVLIYFTSSLHSGVPSRFSGSGSGTDFTLTISSLQPEDFATYYCQQYSTVPWTFGQGTKVEIKRTVAAPSVFIFPPDIQMTQSPSSLSASVGDRVTITCRASQDVSTAVAWYQQKPGKAPKLLIYSASFLYSGVPSRFSGSGSGTDFTLTISSLQPEDFATTYYCQQSYTGTVTFGQGTKVEIKRTVAAPSVFIFPPSDEQLKSGTASVVCLLNNFYPREAKVQWKVDNALQSGNSQESVTEQDSKDSTYSLSSTLTLSKADYEKHKVYACEVTHQGLSSPVTKSFNRGEC | 0.2 | 0.000138 | 687000
DVD518 (bispecific antibody, human IgG1, kappa, lambda, DVD-Ig; N-term; AB014 (VEGF), C-term; AB073 (DLL4); HC linker long, LC linker long; also called DVD518H; DVD518L) heavy: not shown light: DIQMTQSPSSLSASVGDRVTITCSASQDISNYLNWYQQKPGKAPKVLIYFTSSLHSGVPSRFSGSGSGTDFTLTISSLQPEDFATYYCQQYSTVPWTFGQGTKVEIKRTVAAPSVFIFPPQAVVTQESALTTSPGETVTLTCRSSTGAVTTSNYANWVQEKPDHLFTGLIGGTNNRAPGVPARFSGSLIGDKAALTITGAQTEDEAIYFCALWYSNHWVFGGGTKLTVLGQPKAAPSVTLFPPSSEELQANKATLVCLISDFYPGAVTVAWKADSSPVKAGVETTTPSKQSNNKYAASSYLSLTPEQWKSHRSYSCQVTHEGSTVEKTVAPTECS | 0.434 | 0.125 | 2.88e+08
DVD530 (bispecific antibody, human IgG1, kappa, lambda, L234A L235A, DVD-Ig; N-term; AB014 (VEGF), C-term; AB073 (DLL4); HC linker short, LC linker long; also called DVD530H; DVD530L) heavy: not shown light: DIQMTQSPSSLSASVGDRVTITCSASQDISNYLNWYQQKPGKAPKVLIYFTSSLHSGVPSRFSGSGSGTDFTLTISSLQPEDFATYYCQQYSTVPWTFGQGTKVEIKRTVAAPSVFIFPPQAVVTQESALTTSPGETVTLTCRSSTGAVTTSNYANWVQEKPDHLFTGLIGGTNNRAPGVPARFSGSLIGDKAALTITGAQTEDEAIYFCALWYSNHWVFGGGTKLTVLGQPKAAPSVTLFPPSSEELQANKATLVCLISDFYPGAVTVAWKADSSPVKAGVETTTPSKQSNNKYAASSYLSLTPEQWKSHRSYSCQVTHEGSTVEKTVAPTECS | 0.136 | 0.000171 | 1.26e+06
